Measurements as given in article PMC7954794, “Protein context shapes the specificity of SH3 domain-mediated interactions in vivo” (Nature Communications, 2021).

B1: ABP1 Y9Y (protein, UniProt P15891 2-592, looked up)
Actin-binding protein: ALEPIDYTTHSREIDAEYLKIVRGSDPDTTWLIISPNAKKEYEPESTGSSFHDFLQLFDETKVQYGLARVSPPGSDVEKIIIIGWCPDSAPLKTRASFAANFAAVANNLFKGYHVQVTARDEDDLDENELLMKISNAAGARYSIQTSSKQQGKASTPPVKKSFTPSKSPAPVSKKEPVKTPSPAPAAKISSRVNDNNDDDDWNEPELKERDFDQAPLKPNQSSYKPIGKIDLQKVIAEEKAKEDPRLVQKPTAAGSKIDPSSDIANLKNESKLKRDSEFNSFLGTTKPPSMTESSLKNDDDKVIKGFRNEKSPAQLWAERKAKQNSGNAETKAEAPKPEVPEDEPEGEPDVKDLKSKFEGLAASEKEEEEMENKFAPPPKKSEPTIISPKPFSKPQEPVKAEEAEQPKTDYKKIGNPLPGMHIEADNEEEPEENDDDWDDDEDEAAQPPLPSRNVASGAPVQKEEPEQEEIAPSLPSRNSIPAPKQEEAPEQAPEEEIEEEAEEAAPQLPSRSSAAPPPPPRRATPEKKPKENPWATAEYDYDAAEDNELTFVENDKIINIEFVDDDWWLGELEKDGSKGLFPSNYVSLGN
modifications: synonymous codon change Y9Y
B2: ABP1 D10D (protein, UniProt P15891 2-592, looked up)
Actin-binding protein: B1 Actin-binding protein
modifications: synonymous D10D codon change
B3: ABP1 A11A (protein, UniProt P15891 2-592, looked up)
Actin-binding protein: B1 Actin-binding protein
modifications: synonymous codon change A11A in SH3
B4: ABP1 Y7Y (protein, UniProt P15891 2-592, looked up)
Actin-binding protein: B1 Actin-binding protein
modifications: synonymous codon change Y7Y in SH3
B5: ABP1 V54V (protein, UniProt P15891 2-592, looked up)
Actin-binding protein: B1 Actin-binding protein
modifications: synonymous V54V
B6: ABP1 N58N (protein, UniProt P15891 2-592, looked up)
Actin-binding protein: B1 Actin-binding protein
modifications: synonymous codon change N58N
B7: ABP1 S55S (protein, UniProt P15891 2-592, looked up)
Actin-binding protein: B1 Actin-binding protein
modifications: synonymous codon change S55S
B8: ABP1 G57G (protein, UniProt P15891 2-592, looked up)
Actin-binding protein: B1 Actin-binding protein
modifications: synonymous G57G codon change in SH3 domain
B9: ABP1 D34D (protein, UniProt P15891 2-592, looked up)
Actin-binding protein: B1 Actin-binding protein
modifications: synonymous codon change D34D
B10: ABP1 V31V (protein, UniProt P15891 2-592, looked up)
Actin-binding protein: B1 Actin-binding protein
modifications: synonymous codon change V31
B11: ABP1 D33D (protein, UniProt P15891 2-592, looked up)
Actin-binding protein: B1 Actin-binding protein
modifications: synonymous D33D codon change
B12: ABP1 D32D (protein, UniProt P15891 2-592, looked up)
Actin-binding protein: B1 Actin-binding protein
modifications: synonymous D32D codon change
B13: YHR114W (protein, UniProt P38822 1-633, looked up)
Protein BZZ1: MSADLSIGNEIKDSFKETHKWVQNNLKWLKDIEQFYRERAKLEKDYSERLSRLSAEYFNKKSSTSVPISVGDTPTTTPGSIEAAGVVAWNEILSQTDMISKDHDQLSTDFENHVANQLSGLFTKLDMTLSKINGFNNDMVNKKDNIYHELEKAKKDYDEACSTMEMARNRYTKASNDRNKKKLDEKEMEMNKCKNEYLIKINQANRTKDKYYFQDVPEVLDLLQDVNEAKTLFLNDLWLKAASVENDLGANVSKRLQAANSVVKQNKPSLNTAIFIKHNLKNWKEPQDFVYKPSPVWHDDEKFAVPSSLEVEDLRIKLAKAENDYNSLQDKTQNELSKLSTLNKIKHEMKTNEDNINATKFYDTLKEYLNVVSPFTSHETLKLQAEVQIESIQNNVPEEYDLSTDNIDLSKTKKKSGIFSKFKHNILNVDSKPSSGGSTGNGNGGPLHITSLFNTSRRTRLGSAPNNAGEDSDNNSIRTTSTNNTKKTTQNSSDDGKNKVLYAYVQKDDDEITITPGDKISLVARDTGSGWTKINNDTTGETGLVPTTYIRISSAATVKANDRGPAPEVPPPRRSTLPVRTMEAIYAYEAQGDDEISIDPGDIITVIRGDDGSGWTYGECDGLKGLFPTSYCK

tested on: Hua2; assay: Deep mutational scanning of Abp1 SH3, Abp1-Hua2 DHFR-PCA (DMS score); assay type: cell-based, Saccharomyces cerevisiae; details: Abp1-Hua2; frequencies scaled to the synonymous mutation distribution
Method in brief: (§1)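 Yeast carrying single-codon Abp1 SH3 variants at the endogenous locus, each paired with a Hua2 or Lsb3 DHFR-fragment partner; binding scored by growth over two successive 72 h PCA selections at 30 °C. Illumina counts before and after selection give the DMS score; independent duplicates.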

| Molecule | hua2sc (DMS score) |
| --- | --- |
| B1 | -0.7456 |
| B2 | -0.2777 |
| B3 | 0.2975 |
| B4 | 0.2398 |

same assay, conditions: Abp1-Hua2 DHFR-PCA, DMS score

| Molecule | hua2sc (frequencies scaled to the synonymous mutation distribution, DMS score) |
| --- | --- |
| B5 | -0.1199 |
| B6 | -0.8159 |
| B7 | -0.05585 |
| B8 | -0.4468 |

same assay, conditions: Abp1-Hua2 DHFR-PCA, MTX2

| Molecule | HUA2_MTX2 (frequencies normalized to the reference condition) |
| --- | --- |
| B5 | 1.4929 |
| B6 | 0.7969 |
| B7 | 1.557 |
| B8 | 1.166 |

same assay, conditions: Abp1-Hua2 DHFR-PCA, MTX2; DMS score scaled to the synonymous mutation distribution

| Molecule | hua2sc (frequencies scaled to the synonymous mutation distribution, DMS score) |
| --- | --- |
| B9 | -0.3883 |
| B10 | -0.7307 |
| B11 | 0.4122 |
| B12 | -0.3604 |

same assay, conditions: Abp1-Hua2 DHFR-PCA, MTX2; normalized to the reference condition

| Molecule | HUA2_MTX2 (frequencies normalized to the reference condition) |
| --- | --- |
| B9 | 1.224 |
| B10 | 0.882 |
| B11 | 2.025 |
| B12 | 1.252 |

same assay, conditions: Abp1 SH3 DMS; Abp1-Hua2 DHFR-PCA, MTX2; frequencies normalized to the reference condition

| Molecule | HUA2_MTX2 (frequency normalized to the reference condition) |
| --- | --- |
| B1 | 0.8672 |
| B2 | 1.335 |
| B3 | 1.91 |
| B4 | 1.853 |

tested on: Lsb3; assay: Deep mutational scanning of Abp1 SH3, Abp1-Lsb3 DHFR-PCA (DMS score); assay type: cell-based, Saccharomyces cerevisiae; details: Abp1-Lsb3; frequencies scaled to the synonymous mutation distribution
Method in brief: as §1

| Molecule | lsb3sc (DMS score) |
| --- | --- |
| B1 | -0.3936 |
| B2 | 0.006531 |
| B3 | 0.4621 |
| B4 | -0.04736 |

same assay, conditions: Abp1-Lsb3 DHFR-PCA, DMS score

| Molecule | lsb3sc (frequencies scaled to the synonymous mutation distribution, DMS score) |
| --- | --- |
| B5 | -0.8004 |
| B6 | -0.6649 |
| B7 | 0.2461 |
| B8 | -0.3559 |

same assay, conditions: Abp1-Lsb3 DHFR-PCA, MTX2

| Molecule | LSB3_MTX2 (frequencies normalized to the reference condition) |
| --- | --- |
| B5 | 0.6999 |
| B6 | 0.8354 |
| B7 | 1.746 |
| B8 | 1.1444 |

same assay, conditions: Abp1-Lsb3 DHFR-PCA, MTX2; DMS score scaled to the synonymous mutation distribution

| Molecule | lsb3sc (frequencies scaled to the synonymous mutation distribution, DMS score) |
| --- | --- |
| B9 | -0.3576 |
| B10 | -0.4906 |
| B11 | 0.1943 |
| B12 | -0.4014 |

same assay, conditions: Abp1-Lsb3 DHFR-PCA, MTX2; normalized to the reference condition

| Molecule | LSB3_MTX2 (frequencies normalized to the reference condition) |
| --- | --- |
| B9 | 1.143 |
| B10 | 1.01 |
| B11 | 1.695 |
| B12 | 1.099 |

same assay, conditions: Abp1 SH3 DMS; Abp1-Lsb3 DHFR-PCA, MTX2; frequencies normalized to the reference condition

| Molecule | LSB3_MTX2 (frequency normalized to the reference condition) |
| --- | --- |
| B1 | 1.1067 |
| B2 | 1.507 |
| B3 | 1.962 |
| B4 | 1.453 |

tested on: Hua2 and Lsb3; assay: Classification of Abp1 SH3 mutations by effect on Hua2 and Lsb3 DMS scores (quadrant); assay type: cell-based, Saccharomyces cerevisiae; details: class of mutation by Hua2 and Lsb3 DMS scores (Dest. both, Dest. Hua2, Dest. Lsb3, Neutral)

| Molecule | quadrant |
| --- | --- |
| B1 | Neutral |
| B2 | Neutral |
| B3 | Neutral |
| B4 | Neutral |

tested on: BBC1; assay: DHFR-PCA on solid medium, bait BBC1 (Fig. 1B); assay type: cell-based, Saccharomyces cerevisiae; details: bait BBC1, label = prey; 2-4 replicates
Source text: (§2) Supplement 41467_2021_21873_MOESM8_ESM.xlsx, sheet "Fig1B" | column: medsize; medrep; Ratio; Score

| Molecule | medrep (log2 median colony size normalized to plate background, PCA score) |
| --- | --- |
| B13 | 1.475 |

same assay, conditions: bait BBC1, label = prey; only significant differences showed; PPIs completely lost have a ratio of 0.1 and the gained PPIs 2.5

| Molecule | Ratio (SH3-deleted/WT medrep) |
| --- | --- |
| B13 | 0.1 |

tested on: Hua2 and Lsb3 (Abp1-Hua2 and Abp1-Lsb3 PPIs); assay: Deep mutational scanning of Abp1 SH3, quadrant classification from Hua2 and Lsb3 DMS scores; assay type: cell-based, Saccharomyces cerevisiae; details: class from DMS scores for Hua2 and Lsb3

| Molecule | quadrant |
| --- | --- |
| B5 | Neutral |
| B6 | Neutral |
| B7 | Neutral |
| B8 | Neutral |

tested on: ABP1; assay: DHFR-PCA on solid medium, bait ABP1 (Fig. 1B); assay type: cell-based, Saccharomyces cerevisiae; details: bait ABP1, label = prey; 2-4 replicates
Source text: as §2

| Molecule | medrep (log2 median colony size normalized to plate background, PCA score) |
| --- | --- |
| B13 | 3.834 |

tested on: BZZ1-1; assay: DHFR-PCA on solid medium, bait BZZ1-1 (Fig. 1B); assay type: cell-based, Saccharomyces cerevisiae; details: bait BZZ1-1, label = prey; 4 replicates
Source text: Supplement 41467_2021_21873_MOESM8_ESM.xlsx, sheet "Fig1B" | column: medsize; medrep; Score

| Molecule | medrep (log2 median colony size normalized to plate background, PCA score) |
| --- | --- |
| B13 | 4.137 |

tested on: Hua2 and Lsb3; assay: Classification of Abp1 SH3 mutants by DMS scores with Hua2 and Lsb3 (quadrant); assay type: cell-based, Saccharomyces cerevisiae; details: class by DMS scores with Hua2 and Lsb3 (Dest. both, Dest. Hua2, Dest. Lsb3, Neutral)

| Molecule | quadrant |
| --- | --- |
| B9 | Neutral |
| B10 | Neutral |
| B11 | Neutral |
| B12 | Neutral |
